# Tests used:
# [1] = target: human activated protein C (APC), wild type (human, UniProt P04070, gamma carboxylglutamic acid (Gla) residues in the amino-terminal Gla domain (x in Sequence ID No. 2); Gla content 8.7±0.3 per mole for protein C); assay: cell-based or functional assay
"factor Va inactivation (three stage assay, residual factor Va activity in prothrombinase) (times more active than wild type APC) (factor Va)",factor Va inactivation by APC with and without protein S [1] [fold],Molecule
5,,APC-PT Gla (activated chimeric protein C with the Gla domain and hydrophobic stack of prothrombin) (from UniProt P04070) (enzyme)
,2,human protein S (other) ANSLLEETKQGNLERECIEELCNKEEAREVFENDPETDYFYPKYLVCLRSFQTGLFTAARQSTNAYPDLRSCVNAIPDQCSPLPCNEDGYMSCKDGKASFTCTCKPGWQGEKCEFDINECKDPSNINGGCSQICDNTPGSYHCSCKNGFVMLSNKKDCKDVDECSLKPSICGTAVCKNIPGDFECECPEGYRYNLKSKSCEDIDECSENMCAQLCVNYPGGYTCYCDGKKGFKLAQDQKSCEVVSVCLPLNLDTKYELLYLAEQFAGVVLYLKFRLPEISRFSAEFDFRTYDSEGVILYAESIDHSAWLLIALRGGKIEVQLKNEHTSKITTGGDVINNGLWNMVSVEELEHSISIKIAKEAVMDINKPGPLFKPENGLLETKVYFAGFPRKVESELIKPINPRLDGCIRSWNLMKQGASGIKEIIQEKQNKHCLVTVEKGSYYPGSGIAQFHIDYNNVSSAEGWHVNVTLNIRPSTGTGVMLALVSGNNTVPFAVSLVDSTSEKSQDILLSVENTVIYRIQALSLCSDQQSHLEFRVNRNNLELSTPLKIETISHEDLQRQLAVLDKAMKAKVATYLGGLPDVPFSATPVNAFYNGCMEVNINGVQLDLDEAISKHNDIRAHSCPSVWKKTKNS

# Source: patent US5837843, “Modified protein C” (Oklahoma Medical Research Foundation, dated 1998)
